The subject of series [1] is ZFN7264 (host, center linker TGSQKP) (synthetic). Kind of series: cell_activity. The following applies: yeast, partner ZFN7263; host on 0-bp gap = 1.00; host data same as Table 9.
In series [2] the test system is ZFN7264 linker 1e (synthetic). Nature of the series: cell_activity. To be noted: yeast, partner ZFN7263; host on 0-bp gap = 1.00.
The test system of series [3] is ZFN7264 linker TGGGGSQKP (synthetic). Kind of series: cell_activity. The following applies: yeast, partner ZFN7263; host on 0-bp gap = 1.00.
In series [4] the test system is ZFN7264 linker TGLPKPKP (synthetic). Nature of the series: cell_activity. The following applies: yeast, partner ZFN7263; host on 0-bp gap = 1.00.
Series [5] concerns ZFN7264 linker TSRPRPKP (synthetic). Nature of the series: cell_activity. To be noted: yeast, partner ZFN7263; host on 0-bp gap = 1.00.
Series [6] relates to ZFN7264 (host) (artificial). Kind of series: cell_activity. The following applies: yeast, paired with 7263 ZFN.
The subject of series [7] is ZFN7264 linker 1e center linker F2-F3 TGSQKP replaced by TVPRPTPPKP (artificial). Nature of the series: cell_activity. To be noted: normalized yeast MEL-1 score.
The subject of series [8] is ZFN7264 linker TGGGGSQKP (artificial). Kind of series: cell_activity. The following applies: yeast, paired with 7263 ZFN.
For series [9], the system named is ZFN7264 linker TGLPKPKP (artificial). Nature of the series: cell_activity. The following applies: yeast, paired with 7263 ZFN.
For series [10], the system named is ZFN7264 linker TSRPRPKP (artificial). Nature of the series: cell_activity. The following applies: yeast, paired with 7263 ZFN.
For series [11], the system named is ZFP8196 (host, center linker TGEKP) (artificial).
Series [12] has as its system ZFP8196 linker 1c (artificial).
The subject of series [13] is ZFP8196 linker 1d (artificial).
For series [14], the system named is ZFP8196 linker 1f (artificial).
The test system of series [15] is ZFP8196 linker LRQKDERP (artificial).
Series [16] deals with ZFP8196 linker TCPRPPTRKP (artificial).
In series [17] the test system is ZFP8196 linker TEPRAKPPKP (artificial).
The test system of series [18] is ZFP8196 linker TGEGGKP (artificial).
The subject of series [19] is ZFP8196 linker TGGGGSQKP (artificial).
For series [20], the system named is ZFP8196 linker TGYSIPRPKP (artificial).
In series [21] the test system is ZFP8196 linker TPDAPKPKP (artificial).
For series [22], the system named is ZFP8196 linker TPDRPISTCKP (artificial).
The test system of series [23] is ZFP8196 linker TPGLHRPKP (artificial).
The test system of series [24] is ZFP8196 linker TPSHTPRPKP (artificial).
The subject of series [25] is ZFP8196 linker TSPRLPAPKP (artificial).
Series [26] concerns ZFP8196 linker TSSPRSNAKP (artificial).
Series [27] deals with ZFP8196 linker TVSPAPCRSKP (artificial).
Series [28] deals with ZFP7264 (host, center linker TGSQKP) (artificial).
In series [29] the test system is ZFP7264 linker 1e (artificial).
The subject of series [30] is ZFP7264 linker LRQKDERP (artificial).
Series [31] relates to ZFP7264 linker TGEGGKP (artificial).
The subject of series [32] is ZFP7264 linker TGGGGSQKP (artificial).
For series [33], the system named is ZFP7264 linker TGLPKPKP (artificial).
For series [34], the system named is ZFP7264 linker TKHGTPKHREDKP (artificial).
Series [35] concerns ZFP7264 linker TLPLPRPKP (artificial).
The test system of series [36] is ZFP7264 linker TLPPCFRPKP (artificial).
In series [37] the test system is ZFP7264 linker TSRPRPKP (artificial).

As to “AAAGCGCTGCTCCG (double strand) [7264 yeast half-site gap CT]”, the activity (normalized MEL-1) in series [1] was 0.08; in series [2], 0.11; in series [3], 0.15; in series [4] it was 0.09; in [5], 0.1.

As for “AAAGCGGCTCCG (double strand) [7264 yeast half-site 0-bp gap]”, the activity (normalized MEL-1) was found to be 1 in series [6], 0.28 in series [8], 0.04 in [9] and 0.08 in series [10]. The same sequence returned an activity in series [7] (with invariant 7263 ZFN partner) of 0.08.

For “AAAGCGTAGCTCCG (double strand) [7264 yeast half-site gap TA]”, the activity (normalized MEL-1) in series [1] is 0.02; in [2], 0.09; in series [3], 0.09; in series [4], 0.08; in series [5] it was 0.07.

Turning to “AAAGCGTGCTCCG (double strand) [7264 yeast half-site gap T]”, the activity (normalized MEL-1) in series [6] is 0.06; in series [8] it was 0.34; in series [9], 0.79; in series [10], 3.38. In [7], this sequence gave an activity of 2.34.

For “TTAGATAAACTGACCAAAAGGCTATC (double strand) [8196 target gap AC]”, the binding signal (normalized ELISA) in [11] was 0; in [12] it was 0; in series [13], 0.01; in series [14], 0; in series [15], 0; in series [16], 0. Besides, the binding signal (normalized ELISA) in series [17] is 0.01; in series [18] it was 0; in series [19], 0; in [20] it was 0; in [21] it was 0; in [22], 0.01. Besides, the binding signal (normalized ELISA) in series [23] amounted to 0; in series [24] it was 0.01; in [25] it was 0; in series [26] it was 0; in series [27], 0.

On to “TTAGATAAACTGTGCAAAAGGCTATC (double strand) [8196 target gap TG]”, for which the binding signal (normalized ELISA) turned out to be 0 in series [11]; 0 in series [12]; 0.01 in [13]; 0.01 in series [14]; 0 in series [15]; 0.01 in [16]. Further, the binding signal (normalized ELISA) came out at 0.01 in series [17]; 0 in [18]; 0 in [19]; 0.01 in series [20]; 0.01 in series [21]; 0.02 in series [22]. In addition, the binding signal (normalized ELISA) in [23], in [24], in [25], in [26] and in series [27] was 0.01 in each case.

As to “TTAGTTAAAGCGTAGCTCCGAATATC (double strand) [7264 target gap TA]”, the binding signal (normalized ELISA) stood at 0 in [28]; 0.05 in series [29]; 0.02 in series [30]; 0.02 in series [31]; 0.03 in series [32]; 0.02 in [33]. Also, the binding signal (normalized ELISA) was 0 in series [34], 0.03 in series [35], 0.06 in series [36] and 0.03 in series [37].

(Values after patent publication US20110287512.)
